System: C=C(OP(=O)(O)O)C(=O)O
Assay: In vitro kinetic assay (inorganic phosphate production, malachite green)
Type: biochemical, Mariprofundus ferrooxydans
Details: other: pH 7.5, 1 mM S3P

Mariprofundus ferrooxydans EPSP synthase DGT-14 variant DGT-14 v6 (G101A), SEQ ID NO:1 (Mariprofundus ferrooxydans PV-1; G101A)
Km: 352.5 µM

Source: US9873883B2, “Glyphosate resistant plants and associated methods” (Dow AgroSciences LLC, priority 2012, dated 2018)
